A short description of the data set: soluble on expression in E. coli; label from the status in PepcDB or PDB records.
“MDGIFAGIICNQANRCLTWTSQQLFSEKISGAEGTKLDDEFLDMERKIDVTNKVVAEILSKTTEYLQPNPAYRAKLGMLNTVSKIRGQVKTTGYPQTEGLLGDCMLKYGKELGEDSTFGNALIEVGESMKLMAEVKDSLDINVKQTFIDPLQLLQDKDLKEIGHHLKKLEGRRLDYDYKKKRVGKIPDEEVRQAVEKFEESKELAERSMFNFLENDVEQVSQLAVFIEAALDYHRQSTEILQELQSKLQMRISAASSVPRREYKPRPVKRSSSELNGVSTTSVVKTTGSNIPMDQPCCRGLYDFEPENQGELGFKEGDIITLTNQIDENWYEGMIHGESGFFPINYVEVIVPLPQ”: the “soluble on expression in E. coli” value is recorded as “soluble”.

On to “SRYAIYWTPEDGPLARFGRSWLGWDPVTAEPAAHPAIEDLPRDVALITQAPRKYGLHATLKPPFRLADGADVTDLHAAVVALCPYLAPVTLPGLKLDRIGGFLALVPAGNEEPLADLAAEVMRALDGFRAPLTEAELARRRPERLTPRQRGHLADWGYPYVLDDYRFHVTLTGELPEAELAEVVTVLEPLLEPILAEPVRIASLCLFAEASDGRFRMLERLPIT”, for which the “soluble on expression in E. coli” value is listed as “not soluble”. Under “MGSDKIHHHHHHMAYRNGTYVAFHANGTNRPGGNSDIDYYNLLKAWVGKDDDHFTMNNSHDKASAVRDSSKKETLRASLLERLRNSKNMVLIIGDTTLLDDDWVPFEISSAVDTYEIPIIAVYTQYSTPIRNPAALRSRWPDALATRIDSQKAKVIHIPFKKAALNDAISQFSHNNMPKGPLSFYSDEAYESFGIDG” stands “not soluble”; under “MSLAVFAARKWKYNEDKMMTIVRIDAEARWSDVVIHNNTLYYTGVPENLDADAFEQTANTLAQIDAVLEKQGSNKSSILDATIFLADKNDFAAMNKAWDAWVVAGHAPVRCTVQAGLMNPKYKVEIKIVAAVEGHHHHHH”, “soluble”. Take “MGSDKIHHHHHHGKKKPPPPKSASKMGPPPPAPAPPTAPEAAPAAPTPDAAAAAPAEGEKKDGEKKSEKKDGDKKEEEKKDEEKKDGDKKEDDKKDEKKDEDKKDEKKDADEKKDEEKKDDKKDEKKDEKKDEKKDEKKEKSKKSKKSSKSKKSKKSKREKKDEEKKEDDKKEDDKKDDKKEDEKKDDDKKDDEKNYFW”: the “soluble on expression in E. coli” value is “not soluble”. On to “ERFAREPMAAGHRMWQMAGLKAQRAQTDVNNKKAAFDAAAKEKSDADVALSSALERRKQKENKEKDAKAKLDKESKRNKPGKATGKGKPVNNKWLNNAGKDLGSPVPDRIANKLRDKEFKSFDDFRKKFWEEVSKDPELSKQFSRNNNDRMKVGKAPKTRTQDVSGKRTSFELHHEKPISQNGGVYDMDNISVVTPKRHIDIHRGK”, for which the “soluble on expression in E. coli” value is “soluble”. Turning to “MGSDKIHHHHHHMKNNHTLIIGGGIVGATLALKLAQDNKPVTLIDARPKRSEADWQQVLGQRDARVYALSLASIHLLKEVGAWQKIAASERKADYSQMQVWQLNGMGELLFGDSGDSNSSTGNSNVANNNDNTEPKMLGSMVEPAVIEHALWQRLSAPDVSQYLTVIAGHKVVDMDWLGATQGYRVTLDNGDVIDARLLVGADGRGSFVRKQAGIELDVLDYNQTAICCAIQTEKPHLATARQAMLPTGTLALLPLADITDEDKANPQHWQSIVWTLPRNQALALVAEHPCYIADKLAAASHYELGAIHKIESIASFPLAAQQAKSYVADNLVLIGDAAHGVHPLAGQGLNLGMLDVRALSKQLAHDYNRSGGTLWGANQTLRSYERLRRPHNSLMMHSFSALNWLFAGSLAQIRPVQQLRNEGMYRVSKIKPLMRLFAKQASGV”, the “soluble on expression in E. coli” value is “not soluble”. As to “MKDTLMSIQIIPKTPNNDNVIPYVDEAIKIIDESGMHFRVGPLETTVQGNMNECLILIQSLNERMVELECPSIISQVKFYHVPDGITIETLTEKYDELEHHHHHH”, the “soluble on expression in E. coli” value was “soluble”. In the case of “STPELLSGHIPPGHIPKPIVMPDYVAKYPVIQTDDDRERYKAVFQDQFSEYKELSAEVQAILRKFDELDTVMSRLPHHSENRQEHERISRIHEEFRKKKNDPSFLEKKERCDYLKNKLSHIKQRIQEYDKVMNWDTQGYP”, the “soluble on expression in E. coli” value is “soluble”.

Take “MGSDKIHHHHHHMPFLLFKFPGKRVLGFSFEGRPHRHATGLSRFLDVHGAAYACELGRLSSELVGASEGALLKRLESLYDEILIDEVQDLSAHDWEIVDALLHSSIHIRMVGDIRQSVLATNPRSTKNKQYAYAETVKWFREREQLGRLAIRESVETWRCHPKIAAFSDTIFDASWAFPSTVSRNDAMTDHDGVFLLTKKHVRDYVERFAPQCLRSMAGSGKEFNLDFMNFKVAKGSTFERVLIMPTAGITDFVRKGSSLEPVPAASFYVAVTRAAQSVAMVIDNAGASTLPYWTP”: the “soluble on expression in E. coli” value was “not soluble”. Regarding “MRVYVGVDTGGTFTDFVYWDGKEWRVLKIPSTPSNPAEAVLKGLEKLRRGKALDVVHGSTVATNALLERKGAKTALITNKGFEDVIEIGRQNRERLYDLYYRKPKPLVPRELRFGLNCRINAKGEVLKPINREELKEILKALKEKGVESVAVCMLHSYANPEHEKEVEEELKKNLSVFVSLSSEILPEFREYERCSTTVINAYVSPKMSKYLYYLKDRLREGDLFRVMQSNGGLISPETASKEAVRTILSGPAGGVIGALHLGKLAGFEKLITFDMGGTSTDVSLIYGTPNITTESKIDGLPVKVPMIDINTVGAGGGSIAYVDEGGALRVGPQSAGAQPGPICYGRGGKEITVTDANLFLGRLVPEHFLGGEMKLYPELLEEPFKEMAKKIGLAPTELAEGIIKVANSSMERAIRKVSVERGYNPEEFALFSFGGAGGLHAVLLAKSLNIPKVIIPRNPGLLSAVGMLFADIVKDKVTTVMLKEEEAKPETLEKLFLLMEEKVLSEMEGEGFPPEKVFVERFLDVRYKGQSYEITIPFGENFKETFEKEHERLYGYAHRGRKIEIVNLRIKATGIKEKPPLKEFKERGDKYPKDAILGEREVVFEGRLETFKVLDREKLVYGNVIDFPAIVVEYSSTTLIPPYATAEVDRYGNLIITLL”, the “soluble on expression in E. coli” value is reported as “not soluble”. Take “MGSDKIHHHHHHMKGYFGPYGGQYVPEILMPALEELEAAYEEIMKDESFWKEFNDLLRDYAGRPTPLYFARRLSEKYGARIYLKREDLLHTGAHKINNAIGQVLLAKKMGKTRIIAETGAGQHGVATATAAALFGMECVIYMGEEDTIRQKPNVERMKLLGAKVVPVKSGSRTLKDAINEALRDWITNLQTTYYVIGSVVGPHPYPIIVRNFQKVIGEETKKQILEKEGRLPDYIVACVGGGSNAAGIFYPFIDSGVKLIGVEAGGEGLETGKHAASLLKGKIGYLHGSKTFVLQDDWGQVQVTHSVSAGLDYSGVGPEHAYWRETGKVLYDAVTDEEALDAFIELSRLEGIIPALESSHALAYLKKINIKGKVVVVNLSGRGDKDLESVLNHPYVRERIR”: the “soluble on expression in E. coli” value is given as “not soluble”. Take “MERPQPDSMPQDLSEALKEATKEVHTQAENAEFMRNFQKGQVTRDGFKLVMASLYHIYVALEEEIERNKESPVFAPVYFPEELHRKAALEQDLAFWYGPRWQEVIPYTPAMQRYVKRLHEVGRTEPELLVAHAYTRYLGDLSGGQVLKKIAQKALDLPSSGEGLAFFTFPNIASATKFKQLYESRMNSLEMTPAVRQRVIEEAKTAFLLNIQLFEELQELLTHDTKDQSPSRA”: the “soluble on expression in E. coli” value was “soluble”.

With “MGSDKIHHHHHHVSSTIWTPTAVASEAAAIRFSLWRAVEGQHAVSTMVLVDSLEEQALLEQLLEGSKPPVPASANGLHWLLFTPFRYPPPPTGSRFRGPLDPGVFYGADEIETACAELGFWRWQFLMESPSLTALDPKPQTVFKVEVDTLTVDLRSPPFTESRALWIDPKSYAATQDLARSAREANIGAIRYESVRAPNRGGCGAILTPMAFAEPQPRDAQTWWLSVSRERVLWQRDDVLQRATFAFDTKAFCE”, the “soluble on expression in E. coli” value is reported as “not soluble”.

Turning to “MGSDKIHHHHHHMVKHHCRMVFKFKLGFFTDLHGSEYSFKRSLNIAKSKRVDFLIISGGLIAKEILFVEDIGGRYFLNGKKVNLNNLNEDALRSGKYIVVDKKEVIEDIKSDKSKLEKIVIEKASEQMSRWVKIAEEIFRLEKVFWSPAHGDIPQLDSILKNYGSNLINENVINLEEIQIVSLGFGSPIGNSYREIPDSELYIKGKSLLKDADKERLIMNFHMPPLNTKLDNAKVGLRKSHVGSKAVLDLITEFQPIISLHGHVHESTSMDKVGETIAINPGSLYQLGDPSIVTFEVHKELKSFGSVNVSKYVIKNIEFVSTNPLDVI”, the “soluble on expression in E. coli” value is “not soluble”.

As for “GRISMTVKKLYFIPAGRCMLDHSSVNSALTPGKLLNLPVWCYLLETEEGPILVDTGMPESAVNNEGLFNGTFVEGQILPKMTEEDRIVNILKRVGYEPDDLLYIISSHLHFDHAGGNGAFTNTPIIVQRTEYEAALHREEYMKECILPHLNYKIIEGDYEVVPGVQLLYTPGHSPGHQSLFIETEQSGSVLLTIDASYTKENFEDEVPFAGFDPELALSSIKRLKEVVKKEKPIIFFGHDIEQEKSCRVFPEYI”, the “soluble on expression in E. coli” value was “soluble”. Consider “MPNSKKSKKGGDQQHVTIVPVEPVKGENVDTVAYSSRSRISGESGHLIADVQSPHAKKHRIIFDRDHNVFEFRLLDGSAKHIIVYRLDELLSTTCYPFKIKNGVPIIPTKPTTSDKTLYFNFVYKKDKQKWRLKQIPVIFYTTSERDYWHSLIDTTLRRVKNRPKNIIIFINPFGGNGKAQKIFKDNVDAFFWLTPGLRYKVVLTERANHARDYIVEMPPEQWSAIDGLVSVGGDGLFNELLSGALLRTQTDAGRNIDNPSSHLVTPHIRFGIIGAGSANSIVSTVHETNDHATSAVHIAIGSECNVDVCTVHQHQKLIRISANAISYGWLGDVLRDSEEYRCLGPIRYQWSALRTTIRHPIYRGMVQFSLSHKENVNPKDQLPPCLEPCPVCMKPQGNDKYDYHWHAEFTHVICCVIPTVTPFTPYGLAPFTGIGDGTLDLALVPRISRFHNMQFMRKVAMYGGKQLYELDPSLNCYRVTKWSYQPDADQEDPGVWNLDGEILEQPKDEPLHFKLHPQLISFFGRDAAMVKPTKRSFIKKRKSSIVYQ”, for which the “soluble on expression in E. coli” value is recorded as “not soluble”.

Take “KKGYEVLRDPHLNKGMAFTLEERQQLNIHGLLPPCFLGQDAQVYSILKNFERLTSDLDRYILLMSLQDRNEKLFYKVLTSDIERFMPIVYTPTVGLACQHYGLAFRRPRGLFITIHDRGHIATMLQSWPESVIKAIVVTDGERILGLGDLGCYGMGIPVGKLALYTACGGVKPHQCLPVMLDVGTDNETLLKDPLYIGLRHKRIRGQAYDDLLDEFMEAVTSRYGMNCLIQFEDFANANAFRLLHKYRNKYCTFNDDIQGTASVAVAGLLAALRITKNRLSDHTVLFQGAGEAALGIANLIVMAMQKEGVSKEEAIKRIWMVDSKGLIVKGRASLTPEKEHFAHEHCEMKNLEDIVKDIKPTVLIGVAAIGGAFTQQILQDMAAFNKRPIIFALSNPTSKAECTAEQLYKYTEGRGIFASGSPFDPVTLPSGQTLYPGQGNNSYVFPGVALGVISCGLKHIGDDVFLTTAEVIAQEVSEENLQEGRLYPPLVTIQQVSLKIAVRIAKEAYRNNTASTYPQPEDLEAFIRSQVYSTDYNCFVADSYTWPEEAMKVK”: the “soluble on expression in E. coli” value is recorded as “soluble”. As for “MRILHTADWHLGKTLEGRSRLSEQADVLDELNTIVKDEQIDAIVMAGDAFDTVNPPALAEQLFYESLSALSDRGKRPIVVIAGNHDNPDRLSAASPLTHENGIHLIGYPTTEPIHIEVPSAGELLAVGALAYPSEARLNEVLSDTFDEKLLRDHYDVKIRQAFEHMTSRFRTDAVKIAASHIYVAGGNQTDSDGPIEVGGAYTVAAESLPADAAYVALGHLHRPQTIKRARTLARYSGSPLAYSFSEAGYAKSVTIVDAKPGEEATWQEVLLSSGKPLVKWKAANGLSEVYSWLDEGRDQNAWIDLEIRVADQLSLEEIHRLRKAHPGFIHIRPVFEEQNKDRERIEVKHVSIEDRFKKFYEKQTGGAVPDEEMVRLFLELASGVEEEDAK”, the “soluble on expression in E. coli” value is recorded as “not soluble”.

For the origin of these results see the DeepSol protein solubility set.
